Laboratory results taken from the supplement of paper PMC7125110.
± gives the standard error. Fewer inactive variants are shown than the library holds.

B1: glmS ribozyme (parent)
chain: AUAAAAGCGCCAGAACUACAGAAAUGUAGUUGACGAGGAGGAGGUUUAUCGAAUUUUCGGCGGAUGCCUCCAAA

Experiments:
Conditions in all cases: with glucosamine-6-phosphate
glucosamine-6-phosphate [1] = variants of: B1; experiment: self-cleavage kobs at 40 uM GlcN6P; higher = faster cleavage; RNA array
How it was run: (§1)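 Weighted Michaelis–Menten fits across concentrations supplied kcat and KM, based on kobs from one- or two-exponential decay fits to normalised per-tile medians. The data came from barcoded ribozyme variants transcribed in situ by E. coli RNA polymerase on sequenced MiSeq chips and tracked at 37 °C by a hybridised Cy3 probe. Glucosamine-6-phosphate (40 μM to 10 mM) in HEPES/KCl/Mg(OAc)2 buffer was flowed in.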

glucosamine-6-phosphate [2] = variants of: B1; experiment: self-cleavage kobs at 160 uM GlcN6P; higher = faster cleavage; RNA array
How it was run: as §1

glucosamine-6-phosphate [3] = variants of: B1; experiment: self-cleavage kobs at 640 uM GlcN6P; higher = faster cleavage; RNA array
How it was run: as §1

glucosamine-6-phosphate [4] = variants of: B1; experiment: self-cleavage kobs at 2500 uM GlcN6P; higher = faster cleavage; RNA array
How it was run: as §1

glucosamine-6-phosphate [5] = variants of: B1; experiment: self-cleavage kobs at 10000 uM GlcN6P; higher = faster cleavage; RNA array
How it was run: as §1

Variant	self-cleavage kobs at 40 uM GlcN6P (glucosamine-6-phosphate [1])	self-cleavage kobs at 160 uM GlcN6P (glucosamine-6-phosphate [2])	self-cleavage kobs at 640 uM GlcN6P (glucosamine-6-phosphate [3])	self-cleavage kobs at 2500 uM GlcN6P (glucosamine-6-phosphate [4])	self-cleavage kobs at 10000 uM GlcN6P (glucosamine-6-phosphate [5])
U46C C61U	< 1e-05 s⁻¹	< 1e-05 s⁻¹	< 1e-05 s⁻¹	< 1e-05 s⁻¹	–
U45G G60U C67U C70A	< 1e-05 s⁻¹	–	< 1e-05 s⁻¹	–	< 1e-05 s⁻¹
G43A A64U C67U	< 1e-05 s⁻¹	–	< 1e-05 s⁻¹	< 1e-05 s⁻¹	< 1e-05 s⁻¹
G43U A52U	< 1e-05 s⁻¹	< 1e-05 s⁻¹	–	–	–
G43C G59U	< 1e-05 s⁻¹	< 1e-05 s⁻¹	< 1e-05 s⁻¹	< 1e-05 s⁻¹	< 1e-05 s⁻¹
U46A U49G	< 1e-05 s⁻¹	–	–	–	2.85e-05 ± 1.2e-05 s⁻¹
U46A A48C C70G C71U	< 1e-05 s⁻¹	–	–	–	< 1e-05 s⁻¹
G43U G60C	< 1e-05 s⁻¹	< 1e-05 s⁻¹	< 1e-05 s⁻¹	–	< 1e-05 s⁻¹
A42G G59A	< 1e-05 s⁻¹	–	–	4.78e-05 ± 2e-05 s⁻¹	–
G41C G60U	< 1e-05 s⁻¹	< 1e-05 s⁻¹	< 1e-05 s⁻¹	< 1e-05 s⁻¹	–
G41C G60C	< 1e-05 s⁻¹	< 1e-05 s⁻¹	< 1e-05 s⁻¹	< 1e-05 s⁻¹	< 1e-05 s⁻¹
G41C G60A	< 1e-05 s⁻¹	–	< 1e-05 s⁻¹	–	< 1e-05 s⁻¹
G44A G59U C71A	< 1e-05 s⁻¹	< 1e-05 s⁻¹	< 1e-05 s⁻¹	< 1e-05 s⁻¹	< 1e-05 s⁻¹
G44A G59A	< 1e-05 s⁻¹	< 1e-05 s⁻¹	< 1e-05 s⁻¹	–	< 1e-05 s⁻¹
A42G G60A C70G	< 1e-05 s⁻¹	–	–	–	–
G43A C58G	< 1e-05 s⁻¹	< 1e-05 s⁻¹	< 1e-05 s⁻¹	< 1e-05 s⁻¹	< 1e-05 s⁻¹
A42U C50U	< 1e-05 s⁻¹	< 1e-05 s⁻¹	< 1e-05 s⁻¹	< 1e-05 s⁻¹	< 1e-05 s⁻¹
G43A U47G	< 1e-05 s⁻¹	–	< 1e-05 s⁻¹	–	–
G43C U65A	< 1e-05 s⁻¹	–	< 1e-05 s⁻¹	< 1e-05 s⁻¹	–
A42U A48C	< 1e-05 s⁻¹	< 1e-05 s⁻¹	< 1e-05 s⁻¹	< 1e-05 s⁻¹	–
A42C U46G	< 1e-05 s⁻¹	< 1e-05 s⁻¹	–	–	–

Variant	self-cleavage kobs at 40 uM GlcN6P (glucosamine-6-phosphate [1])	self-cleavage kobs at 160 uM GlcN6P (glucosamine-6-phosphate [2])	self-cleavage kobs at 640 uM GlcN6P (glucosamine-6-phosphate [3])	self-cleavage kobs at 2500 uM GlcN6P (glucosamine-6-phosphate [4])	self-cleavage kobs at 10000 uM GlcN6P (glucosamine-6-phosphate [5])
A42C G62C	< 1e-05 s⁻¹	< 1e-05 s⁻¹	–	–	< 1e-05 s⁻¹
A42C C71G	< 1e-05 s⁻¹	< 1e-05 s⁻¹	< 1e-05 s⁻¹	< 1e-05 s⁻¹	< 1e-05 s⁻¹
U47G C67A	0.000123 ± 1.8e-05 s⁻¹	0.000171 ± 3.2e-05 s⁻¹	0.000788 ± 0.00013 s⁻¹	0.000691 ± 0.00014 s⁻¹	0.00198 ± 0.00048 s⁻¹
G44A C50G U55A	< 1e-05 s⁻¹	–	< 1e-05 s⁻¹	< 1e-05 s⁻¹	–
G43C C71A	< 1e-05 s⁻¹	< 1e-05 s⁻¹	< 1e-05 s⁻¹	< 1e-05 s⁻¹	–
G44A U46C A53U C61U	< 1e-05 s⁻¹	–	–	–	–
G41C G59U	< 1e-05 s⁻¹	–	< 1e-05 s⁻¹	< 1e-05 s⁻¹	< 1e-05 s⁻¹
U47A C68A	< 1e-05 s⁻¹	–	–	–	–
U47G C70G C71G	8.97e-05 ± 2.5e-05 s⁻¹	–	–	–	–
G43A A48U	< 1e-05 s⁻¹	< 1e-05 s⁻¹	< 1e-05 s⁻¹	< 1e-05 s⁻¹	< 1e-05 s⁻¹
U47C A48C	< 1e-05 s⁻¹	< 1e-05 s⁻¹	–	–	–
A42U A52U A64U G66U	< 1e-05 s⁻¹	–	–	–	–
G44U U49G	< 1e-05 s⁻¹	< 1e-05 s⁻¹	< 1e-05 s⁻¹	–	–
U45C G63A	< 1e-05 s⁻¹	< 1e-05 s⁻¹	–	< 1e-05 s⁻¹	< 1e-05 s⁻¹
A42G C50A A64G C70G	< 1e-05 s⁻¹	–	–	–	–
U45A U55A	0.00151 ± 0.00018 s⁻¹	–	0.00993 ± 0.0023 s⁻¹	0.00931 ± 0.0037 s⁻¹	0.09 ± 0.031 s⁻¹
U45A U55G	0.00178 ± 0.00026 s⁻¹	0.00389 ± 0.0012 s⁻¹	0.00532 ± 0.0012 s⁻¹	0.00894 ± 0.0023 s⁻¹	0.0415 ± 0.013 s⁻¹
G41U C70G	0.00157 ± 0.00018 s⁻¹	0.00262 ± 0.00038 s⁻¹	0.00612 ± 0.00092 s⁻¹	0.00944 ± 0.0019 s⁻¹	0.0513 ± 0.014 s⁻¹
U46C A53C U55A U56G G62C	< 1e-05 s⁻¹	–	–	–	–
G41U U49C C61G	< 1e-05 s⁻¹	–	–	–	< 1e-05 s⁻¹
G41U G43U U57G G62A C68A	< 1e-05 s⁻¹	< 1e-05 s⁻¹	< 1e-05 s⁻¹	< 1e-05 s⁻¹	< 1e-05 s⁻¹

Variant	self-cleavage kobs at 40 uM GlcN6P (glucosamine-6-phosphate [1])	self-cleavage kobs at 160 uM GlcN6P (glucosamine-6-phosphate [2])	self-cleavage kobs at 640 uM GlcN6P (glucosamine-6-phosphate [3])	self-cleavage kobs at 2500 uM GlcN6P (glucosamine-6-phosphate [4])	self-cleavage kobs at 10000 uM GlcN6P (glucosamine-6-phosphate [5])
U47G U56G C70A	7.34e-05 ± 2.5e-05 s⁻¹	0.000192 ± 3.8e-05 s⁻¹	6.47e-05 ± 1.3e-05 s⁻¹	7.39e-05 ± 1.8e-05 s⁻¹	6.01e-05 ± 1.4e-05 s⁻¹
U46G G60A	< 1e-05 s⁻¹	< 1e-05 s⁻¹	< 1e-05 s⁻¹	–	–
U46G G60C	< 1e-05 s⁻¹	< 1e-05 s⁻¹	< 1e-05 s⁻¹	< 1e-05 s⁻¹	< 1e-05 s⁻¹
U47C C58U C71U	< 1e-05 s⁻¹	–	–	–	3.48e-05 ± 1.1e-05 s⁻¹
A42G U69C C71A	0.000273 ± 0.00013 s⁻¹	–	–	0.00647 ± 0.0028 s⁻¹	–
G44C U55A	< 1e-05 s⁻¹	< 1e-05 s⁻¹	< 1e-05 s⁻¹	–	–
G44A U45C A48U	< 1e-05 s⁻¹	–	–	–	–
U46A U57A	< 1e-05 s⁻¹	< 1e-05 s⁻¹	–	–	–
G44U G66U U69G	< 1e-05 s⁻¹	–	–	–	–
G41U C50G	< 1e-05 s⁻¹	–	< 1e-05 s⁻¹	–	< 1e-05 s⁻¹
U46C U47C C58G	< 1e-05 s⁻¹	–	< 1e-05 s⁻¹	–	–
G43A U49G	< 1e-05 s⁻¹	< 1e-05 s⁻¹	< 1e-05 s⁻¹	< 1e-05 s⁻¹	–
G43A G51U	< 1e-05 s⁻¹	< 1e-05 s⁻¹	–	< 1e-05 s⁻¹	–
G43U A48G C70G	< 1e-05 s⁻¹	–	–	–	< 1e-05 s⁻¹
U46G U54C C71U	8.18e-05 ± 1.8e-05 s⁻¹	–	–	0.00226 ± 0.00098 s⁻¹	0.00463 ± 0.0014 s⁻¹
U47A U55A	0.000618 ± 0.00013 s⁻¹	0.00147 ± 0.00021 s⁻¹	0.00544 ± 0.0015 s⁻¹	0.00615 ± 0.0017 s⁻¹	0.0432 ± 0.015 s⁻¹
U45C C61G	< 1e-05 s⁻¹	< 1e-05 s⁻¹	< 1e-05 s⁻¹	< 1e-05 s⁻¹	< 1e-05 s⁻¹
U45C C61U	< 1e-05 s⁻¹	< 1e-05 s⁻¹	< 1e-05 s⁻¹	–	< 1e-05 s⁻¹
G43U G51A	< 1e-05 s⁻¹	–	< 1e-05 s⁻¹	–	–
U45A C68A	< 1e-05 s⁻¹	< 1e-05 s⁻¹	< 1e-05 s⁻¹	3.91e-05 ± 1.9e-05 s⁻¹	–
G41U G51U A53G	< 1e-05 s⁻¹	–	–	–	< 1e-05 s⁻¹

Variant	self-cleavage kobs at 40 uM GlcN6P (glucosamine-6-phosphate [1])	self-cleavage kobs at 160 uM GlcN6P (glucosamine-6-phosphate [2])	self-cleavage kobs at 640 uM GlcN6P (glucosamine-6-phosphate [3])	self-cleavage kobs at 2500 uM GlcN6P (glucosamine-6-phosphate [4])	self-cleavage kobs at 10000 uM GlcN6P (glucosamine-6-phosphate [5])
U46G C50G	4.21e-05 ± 9.2e-06 s⁻¹	7.37e-05 ± 1.5e-05 s⁻¹	4.09e-05 ± 1.3e-05 s⁻¹	–	2.21e-05 ± 7.3e-06 s⁻¹
G44C G60A U69G	< 1e-05 s⁻¹	–	–	–	–
G44C G59C C61A	< 1e-05 s⁻¹	< 1e-05 s⁻¹	< 1e-05 s⁻¹	< 1e-05 s⁻¹	< 1e-05 s⁻¹
G44A A52U	< 1e-05 s⁻¹	< 1e-05 s⁻¹	< 1e-05 s⁻¹	–	–
G44A A52C	< 1e-05 s⁻¹	< 1e-05 s⁻¹	< 1e-05 s⁻¹	< 1e-05 s⁻¹	< 1e-05 s⁻¹
G44U A64U	< 1e-05 s⁻¹	< 1e-05 s⁻¹	< 1e-05 s⁻¹	< 1e-05 s⁻¹	< 1e-05 s⁻¹
G43C U46G U69C	< 1e-05 s⁻¹	–	–	–	–
G43C U56C	< 1e-05 s⁻¹	< 1e-05 s⁻¹	< 1e-05 s⁻¹	–	< 1e-05 s⁻¹
G43C G62C	< 1e-05 s⁻¹	< 1e-05 s⁻¹	< 1e-05 s⁻¹	< 1e-05 s⁻¹	–
G43C G62U	< 1e-05 s⁻¹	< 1e-05 s⁻¹	< 1e-05 s⁻¹	< 1e-05 s⁻¹	< 1e-05 s⁻¹
U45A U47G U57A	< 1e-05 s⁻¹	–	–	–	0.000108 ± 2.3e-05 s⁻¹
A42G U47G C61U U69G	< 1e-05 s⁻¹	–	–	< 1e-05 s⁻¹	–
A42U U69G	0.000489 ± 5.4e-05 s⁻¹	0.000822 ± 0.00011 s⁻¹	0.00192 ± 0.00026 s⁻¹	0.00369 ± 0.00061 s⁻¹	0.00738 ± 0.0015 s⁻¹
G41U G43C	< 1e-05 s⁻¹	< 1e-05 s⁻¹	< 1e-05 s⁻¹	< 1e-05 s⁻¹	–
U46C C50A C58U G62C	< 1e-05 s⁻¹	–	–	–	–
U45A U69C	0.000354 ± 5.9e-05 s⁻¹	0.000781 ± 0.00033 s⁻¹	0.000518 ± 0.00013 s⁻¹	0.00166 ± 0.0005 s⁻¹	0.00144 ± 0.00031 s⁻¹
G41C U57A	< 1e-05 s⁻¹	< 1e-05 s⁻¹	–	< 1e-05 s⁻¹	< 1e-05 s⁻¹
U46C G60C	< 1e-05 s⁻¹	< 1e-05 s⁻¹	< 1e-05 s⁻¹	< 1e-05 s⁻¹	< 1e-05 s⁻¹
G43A C61U C71A	< 1e-05 s⁻¹	–	–	–	–
G44C C50A U55A C70U	< 1e-05 s⁻¹	–	–	–	–
G44U G66U	< 1e-05 s⁻¹	< 1e-05 s⁻¹	< 1e-05 s⁻¹	< 1e-05 s⁻¹	< 1e-05 s⁻¹
